Experimental data published in US11198713B2, “Agents modulating beta-catenin functions and methods thereof” (FOG PHARMACEUTICALS, INC., priority 2017, dated 2021).
Numbered stars: 1 amine (or outer) side, 2 acyl side, 3 side chain; on linkers, the order of the positions; unused ones are H or OH. Bridge positions count the residues as written; N and C are the ends. Square brackets hold non-standard residues; d marks the D form. Primed or numbered codes have the meaning given here. R6 = (R)-2-(5-hexenyl)alanine, C=CCCCC[C@@](C)(N[*:1])C(=O)[*:2]; S6 = (S)-2-(5-hexenyl)alanine, C=CCCCC[C@](C)(N[*:1])C(=O)[*:2]; MC = Monomer C = PyrR, Alloc-pyrrolidine stapling residue; MA = Monomer A (Az), N-Alloc azetidine stapling residue; S7 = C[C@@](CCCCCC=[*:3])(N[*:1])C(=O)[*:2]; MB(7) = not defined here

Assays:
full-length beta-catenin [1] = biological target: T1, full-length beta-catenin (UniProt P35222 2-781, limits assumed); experiment: competition FP; amino staple (cyclic)
T1 construct: mature; also called full-length ß-Catenin; β-catenin
T1 sequence (looked up): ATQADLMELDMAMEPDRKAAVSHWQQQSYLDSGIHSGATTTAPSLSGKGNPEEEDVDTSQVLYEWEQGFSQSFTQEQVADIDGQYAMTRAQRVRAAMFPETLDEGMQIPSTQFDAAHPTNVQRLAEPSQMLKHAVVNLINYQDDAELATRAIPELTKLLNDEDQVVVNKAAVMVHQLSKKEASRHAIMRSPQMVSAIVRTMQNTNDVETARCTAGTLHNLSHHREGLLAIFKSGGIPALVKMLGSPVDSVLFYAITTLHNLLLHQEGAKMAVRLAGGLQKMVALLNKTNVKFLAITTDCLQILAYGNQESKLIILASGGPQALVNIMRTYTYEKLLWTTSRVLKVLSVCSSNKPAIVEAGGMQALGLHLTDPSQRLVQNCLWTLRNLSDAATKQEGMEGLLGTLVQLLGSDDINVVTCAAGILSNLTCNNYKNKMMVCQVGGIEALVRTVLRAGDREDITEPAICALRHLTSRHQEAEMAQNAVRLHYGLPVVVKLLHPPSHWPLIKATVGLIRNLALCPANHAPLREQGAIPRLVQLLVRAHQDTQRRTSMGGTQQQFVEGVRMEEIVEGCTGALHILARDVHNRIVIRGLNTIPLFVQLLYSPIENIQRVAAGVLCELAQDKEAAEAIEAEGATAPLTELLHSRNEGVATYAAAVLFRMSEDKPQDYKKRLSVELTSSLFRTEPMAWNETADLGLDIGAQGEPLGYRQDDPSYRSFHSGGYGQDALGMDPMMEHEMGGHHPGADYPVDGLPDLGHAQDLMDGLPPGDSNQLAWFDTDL
Protocol: (§1) In some embodiments, a competition fluorescence polarization assay is used to assess binding of provided compounds to beta-catenin. In an exemplary procedure, solutions of provided compounds, e.g., provided stapled peptides, were prepared in a buffer (e.g., 50 mM Tris pH 8.0, 250 mM NaCl, 2% glycerol, 0.5 mM EDTA, 0.02% w/v sodium azide) using a 3-fold serial dilution from 5 µM. Probe solution (15 nM full-length ß-Catenin, 20 nM FITC labeled peptide in buffer) was prepared and incubated for a period of time, e.g., 5 minutes, and the a volume, e.g., 40 µL per well plated in suitable plate, e.g., a black polystyrene 384-well plate (Corning). Equal volume of the serial diluted peptide was added to the plate and incubated protected from light for 15 minutes prior to read. Reads were performed on a Spectramax M5 (Molecular Devices) in duplicate. Suitable probe was FITC-PEG1-PQ-S5-ILD-S5-HVRRVWR (SEQ ID NO: 1) (hydrocarbon staple formed by two S5 via olefin metathesis) and/or FITC-bA-PQ-S5-ILD-S5-HVRRVWR (SEQ ID NO: 3) (hydrocarbon staple formed by two S5 via olefin metathesis). […] Another peptide, FPO217c (Ac-AR_8ILDAHIM$B5$RVW (SEQ ID NO: 280), with N-terminal proline removed and valine replaced with isoleucine compared to FP0025c) was prepared.

full-length beta-catenin [2] = biological target: T1, full-length beta-catenin; experiment: competition FP, grade of FP EC50 (+: 500-5000 nM)
Summary of the method: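 Compound 3-fold serially diluted from 5 µM in Tris pH 8.0, 250 mM NaCl buffer, added to premixed 15 nM full-length β-catenin and 20 nM FITC-labelled stapled axin-site peptide probe. Incubated 15 min in the dark, polarization read in duplicate.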

full-length beta-catenin [3] = biological target: T1, full-length beta-catenin; experiment: competition FP, grade of FP EC50 (++: 100-500 nM)
Protocol: as §1

B1: FP0767a (peptide)
peptide: Ac-PQ[R6]ILD[MC]HVRRVWR-NH2
modifications: staple 3-7; also: amino staple (-N(R')-), from carbamate staple by metathesis then Pd(0) CO2 extrusion
notes: also called FP-0767 (amino staple)
full-length beta-catenin [1]
  EC50: 700 nM
full-length beta-catenin [2]
  FP EC50: 500 to 5000 nM

B2: FP0736a (peptide)
peptide: Ac-PQ[S6]ILD[MA]HVRRVWR-NH2
modifications: staple 3-7; also: amino staple: CO2 extruded from carbamate staple with Pd(PPh3)4
notes: also called FP-0736 (amino staple)
full-length beta-catenin [3]
  FP EC50: 100 to 500 nM
full-length beta-catenin [1]
  EC50: 470 nM

B3: FP0725a (peptide)
peptide: Ac-PQ[MA]ILD[R6]HVRRVWR-NH2
modifications: staple 3-7; also: amino staple: CO2 extruded from MA carbamate staple with Pd(PPh3)4
notes: also called FP-0725 (amino staple)
full-length beta-catenin [1]
  EC50: 580 nM
full-length beta-catenin [2]
  FP EC50: 500 to 5000 nM

B4: FP0735a (peptide)
peptide: Ac-PQ[R6]ILD[MA]HVRRVWR-NH2
modifications: staple 3-7; also: amino staple: CO2 extruded from carbamate staple with Pd(PPh3)4
notes: also called FP-0735 (amino staple)
full-length beta-catenin [1]
  EC50: 2360 nM
full-length beta-catenin [2]
  FP EC50: 500 to 5000 nM

B5: FP0763a (peptide)
peptide: Ac-PQ[S7]ILD[MB(7)]HVRRVWR-NH2
modifications: staple 3-7; reading uncertain; also: amino staple: CO2 extruded from carbamate staple with Pd(PPh3)4
notes: also called FP-0763 (amino staple)
full-length beta-catenin [1]
  EC50: 1110 nM
full-length beta-catenin [2]
  FP EC50: 500 to 5000 nM

B6: FP0745a (peptide)
peptide: Ac-PQ[MC]ILD[R6]HVRRVWR-NH2
modifications: staple 3-7; also: amino staple: CO2 extruded from carbamate staple with Pd(PPh3)4
notes: also called FP-0745 (amino staple); PR/R6
full-length beta-catenin [3]
  FP EC50: 100 to 500 nM
full-length beta-catenin [1]
  EC50: 210 nM
